From the supplement of paper PMC10567573

B1: PKD2L1 (parent)
chain: VFIFYYVVEEILELHIHRLRYLSS

Variants of: B1
Experiment: protein stability index of a GFP-peptide fusion (GPS, HEK-293T) (PSI 1-6); higher = more stable
Conditions: c terminus: a fixed tail appended
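Note: lentivirally expressed fusions sorted by FACS into six bins by GFP to DsRed ratio, PSI derived from sequencing read proportions per bin multiplied by bin number.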

Variant	protein stability index
VFIFYYGVEEILELHIHRLRYLSS [V7G]	2.25
VFIFYYWVEEILELHIHRLRYLSS [V7W]	2.54
VFIFYYNVEEILELHIHRLRYLSS [V7N]	2.13
VFIFYYSVEEILELHIHRLRYLSS [V7S]	4.39
VFIFYYYVEEILELHIHRLRYLSS [V7Y]	1.75
VFIFYYQVEEILELHIHRLRYLSS [V7Q]	3.24
VFIFYYKVEEILELHIHRLRYLSS [V7K]	3.16
VFIFYYAVEEILELHIHRLRYLSS [V7A]	4.67
VFIFYYFVEEILELHIHRLRYLSS [V7F]	1.93
VFIFYYCVEEILELHIHRLRYLSS [V7C]	3.58
VFIFYYDVEEILELHIHRLRYLSS [V7D]	3.12
VFIFYYHVEEILELHIHRLRYLSS [V7H]	3.16
VFIFYYIVEEILELHIHRLRYLSS [V7I]	2.11
VFIFYYPVEEILELHIHRLRYLSS [V7P]	2.85
VFIFYYVVEEIDELHIHRLRYLSS [L12D]	2.63
VFIFYYVVEEIKELHIHRLRYLSS [L12K]	2.59
VFIFYYVVEEIFELHIHRLRYLSS [L12F]	3.21
VFIFYYVVEEIAELHIHRLRYLSS [L12A]	2.33
VFIFYYVVEEICELHIHRLRYLSS [L12C]	2.92
VFIFYYVVEEIQELHIHRLRYLSS [L12Q]	3.48
VFIFYYVVEEIYELHIHRLRYLSS [L12Y]	2.89
VFIFYYVVEEINELHIHRLRYLSS [L12N]	2.41
VFIFYYVVEEIPELHIHRLRYLSS [L12P]	1.95
VFIFYYVVEEITELHIHRLRYLSS [L12T]	3.03

Variant	protein stability index
VFIFYYVVEEIRELHIHRLRYLSS [L12R]	2.27
VFIFYYVVEEIHELHIHRLRYLSS [L12H]	3.78
VFIFYYVVEEIEELHIHRLRYLSS [L12E]	2.76
VFIFYYVVEEIWELHIHRLRYLSS [L12W]	2.15
VFIFYYVVEEIIELHIHRLRYLSS [L12I]	2.21
VFIFYYVVEEIGELHIHRLRYLSS [L12G]	1.89
VFIFYYVVEEIMELHIHRLRYLSS [L12M]	2.73
VFIFYYVVEEILELHFHRLRYLSS [I16F]	3.25
VFIFYYVVEEILELHNHRLRYLSS [I16N]	3.35
VFIFYYVVEEILELHEHRLRYLSS [I16E]	2.46
VFIFYYVVEEILELHGHRLRYLSS [I16G]	3.3
VFIFYYVVEEILELHKHRLRYLSS [I16K]	2.34
VFIFYYVVEEILELHSHRLRYLSS [I16S]	3.37
VFIFYYVVEEILELHCHRLRYLSS [I16C]	3.5
VFIFYYVVEEILELHLHRLRYLSS [I16L]	2.92
VFIFYYVVEEILELHAHRLRYLSS [I16A]	2.11
VFIFYYVVEEILELHYHRLRYLSS [I16Y]	2.18
VFIFYYVVEEILELHWHRLRYLSS [I16W]	3.5
VFIFYYVVEEILELHRHRLRYLSS [I16R]	2.6
VFIFYYVVEEILELHDHRLRYLSS [I16D]	3.73
VFIFYYVVEEILELHMHRLRYLSS [I16M]	2.9
VFIFYYVTEEILELHIHRLRYLSS [V8T]	1.93
VFIFYYVNEEILELHIHRLRYLSS [V8N]	2.16
VFIFYYVGEEILELHIHRLRYLSS [V8G]	4.19

Variant	protein stability index
VFIFYYVHEEILELHIHRLRYLSS [V8H]	2.51
VFIFYYVIEEILELHIHRLRYLSS [V8I]	3.22
VFIFYYVDEEILELHIHRLRYLSS [V8D]	1.41
VFIFYYVMEEILELHIHRLRYLSS [V8M]	3.67
VFIFYYVLEEILELHIHRLRYLSS [V8L]	2.74
VFIFYYVFEEILELHIHRLRYLSS [V8F]	3.06
VFIFYYVQEEILELHIHRLRYLSS [V8Q]	1.9
VFIFYYVWEEILELHIHRLRYLSS [V8W]	2.57
VFIFFYVVEEILELHIHRLRYLSS [Y5F]	2.11
VFIFKYVVEEILELHIHRLRYLSS [Y5K]	3.67
VFIFHYVVEEILELHIHRLRYLSS [Y5H]	3.91
VFIFDYVVEEILELHIHRLRYLSS [Y5D]	3.1
VFIFSYVVEEILELHIHRLRYLSS [Y5S]	2.86
VFIFTYVVEEILELHIHRLRYLSS [Y5T]	2.27
VFIFNYVVEEILELHIHRLRYLSS [Y5N]	2.63
VFIFWYVVEEILELHIHRLRYLSS [Y5W]	2.24
VFIFPYVVEEILELHIHRLRYLSS [Y5P]	1.66
VFIFMYVVEEILELHIHRLRYLSS [Y5M]	2.79
VFIFGYVVEEILELHIHRLRYLSS [Y5G]	1.31
VFIFEYVVEEILELHIHRLRYLSS [Y5E]	2.14
VFIFYYVVEEILECHIHRLRYLSS [L14C]	2.19
VFIFYYVVEEILEHHIHRLRYLSS [L14H]	2.69
VFIFYYVVEEILEMHIHRLRYLSS [L14M]	2.66
VFIFYYVVEEILEPHIHRLRYLSS [L14P]	3.5

Variant	protein stability index
VFIFYYVVEEILESHIHRLRYLSS [L14S]	2.8
VFIFYYVVEEILERHIHRLRYLSS [L14R]	2.59
VFIFYYVVEEILETHIHRLRYLSS [L14T]	4.48
VFIFYYVVEEILEEHIHRLRYLSS [L14E]	2.14
VFIFYYVVEEILEKHIHRLRYLSS [L14K]	2.29
VFIFYYVVEEILENHIHRLRYLSS [L14N]	3.64
VFIFYYVVEEILEYHIHRLRYLSS [L14Y]	2.14
VFIFYYVVEEILEVHIHRLRYLSS [L14V]	3.38
VFIFYYVVEEILEDHIHRLRYLSS [L14D]	1.93
VFIFYYVVEEILEIHIHRLRYLSS [L14I]	2.22
VFIFYYVVEEILEWHIHRLRYLSS [L14W]	1.99
VFIFYEVVEEILELHIHRLRYLSS [Y6E]	1.79
VFIFYPVVEEILELHIHRLRYLSS [Y6P]	1.54
VFIFYIVVEEILELHIHRLRYLSS [Y6I]	2.85
VFIFYNVVEEILELHIHRLRYLSS [Y6N]	2.01
VFIFYFVVEEILELHIHRLRYLSS [Y6F]	1.65
VFIFYLVVEEILELHIHRLRYLSS [Y6L]	3.99
VFIFYRVVEEILELHIHRLRYLSS [Y6R]	2.78
VFIFYMVVEEILELHIHRLRYLSS [Y6M]	2.17
VFIFYKVVEEILELHIHRLRYLSS [Y6K]	2.12
VFIFYSVVEEILELHIHRLRYLSS [Y6S]	4.37
VFIFYAVVEEILELHIHRLRYLSS [Y6A]	1.41
